Reference: IntAct's records for PubMed 11454741

B1: Synaptotagmin-1 (Rattus norvegicus (Rat)), P21707 (parent)
chain: MVSASHPEALAAPVTTVATLVPHNATEPASPGEGKEDAFSKLKQKFMNELHKIPLPPWALIAIAIVAVLLVVTCCFCVCKKCLFKKKNKKKGKEKGGKNAINMKDVKDLGKTMKDQALKDDDAETGLTDGEEKEEPKEEEKLGKLQYSLDYDFQNNQLLVGIIQAAELPALDMGGTSDPYVKVFLLPDKKKKFETKVHRKTLNPVFNEQFTFKVPYSELGGKTLVMAVYDFDRFSKHDIIGEFKVPMNTVDFGHVTEEWRDLQSAEKEEQEKLGDICFSLRYVPTAGKLTVVILEAKNLKKMDVGGLSDPYVKIHLMQNGKRLKKKKTTIKKNTLNPYYNESFSFEVPFEQIQKVQVVVTVLDYDKIGKNDAIGKVFVGYNSTGAELRHWSDMLANPRRPIAQWHTLQVEEEVDAMLAVKK
partner: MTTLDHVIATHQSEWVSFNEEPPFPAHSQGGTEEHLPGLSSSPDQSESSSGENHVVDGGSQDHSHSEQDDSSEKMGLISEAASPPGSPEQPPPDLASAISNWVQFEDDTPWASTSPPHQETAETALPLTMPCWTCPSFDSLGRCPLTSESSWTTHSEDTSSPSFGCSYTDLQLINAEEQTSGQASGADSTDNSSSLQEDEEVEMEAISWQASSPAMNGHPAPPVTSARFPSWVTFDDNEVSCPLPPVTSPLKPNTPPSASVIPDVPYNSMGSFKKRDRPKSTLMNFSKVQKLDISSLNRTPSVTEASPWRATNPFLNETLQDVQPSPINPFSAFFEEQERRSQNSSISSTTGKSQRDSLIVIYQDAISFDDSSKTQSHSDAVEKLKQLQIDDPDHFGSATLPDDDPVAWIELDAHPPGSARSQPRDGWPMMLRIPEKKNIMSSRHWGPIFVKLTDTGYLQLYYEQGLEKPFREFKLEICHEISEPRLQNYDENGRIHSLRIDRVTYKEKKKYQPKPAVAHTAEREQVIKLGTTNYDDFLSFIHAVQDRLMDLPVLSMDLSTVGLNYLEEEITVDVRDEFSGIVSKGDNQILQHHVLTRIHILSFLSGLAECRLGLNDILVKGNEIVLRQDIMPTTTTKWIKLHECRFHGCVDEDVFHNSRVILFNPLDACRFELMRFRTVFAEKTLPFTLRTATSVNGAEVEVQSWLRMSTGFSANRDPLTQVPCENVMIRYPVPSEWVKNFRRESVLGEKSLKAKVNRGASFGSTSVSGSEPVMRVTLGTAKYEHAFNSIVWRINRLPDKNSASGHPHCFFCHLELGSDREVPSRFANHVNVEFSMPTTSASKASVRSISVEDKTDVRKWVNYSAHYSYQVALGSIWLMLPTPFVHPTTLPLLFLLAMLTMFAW
B2: Stonin-2 (Homo sapiens), Q8WXE9 (parent)
chain: B1 partner

Variants of: B1
Details: with ston2_human STON2, Q8WXE9

| effect of a mutation on the interaction | Variant |
| --- | --- |
| decreasing interaction | MVSASHPEALAAPVTTVATLVPHNATEPASPGEGKEDAFSKLKQKFMNELHKIPLPPWALIAIAIVAVLLVVTCCFCVCKKCLFKKKNKKKGKEKGGKNAINMKDVKDLGKTMKDQALKDDDAETGLTDGEEKEEPKEEEKLGKLQYSLDYDFQNNQLLVGIIQAAELPALDMGGTSDPYVKVFLLPDAAKKFETKVHRKTLNPVFNEQFTFKVPYSELGGKTLVMAVYDFDRFSKHDIIGEFKVPMNTVDFGHVTEEWRDLQSAEKEEQEKLGDICFSLRYVPTAGKLTVVILEAKNLKKMDVGGLSDPYVKIHLMQNGKRLKKKKTTIKKNTLNPYYNESFSFEVPFEQIQKVQVVVTVLDYDKIGKNDAIGKVFVGYNSTGAELRHWSDMLANPRRPIAQWHTLQVEEEVDAMLAVKK [K189A;K190A] |

Variants of: B2
Details: with syt1_rat Syt1, P21707

| effect of a mutation on the interaction | Variant |
| --- | --- |
| decreasing interaction | W738A;K740A |
